Substitutions are numbered along the chain they refer to.
Tests used:
[1] = biological target: T1, human CD137, full length, on cells (human, UniProt Q07011 24-255); assay: cell-based or functional assay
[2] = biological target: T2, hCD137-mFc-Avi (human; mouse, UniProt Q07011 24-186, one biotin on the Avi sequence of each monomer (BirA); unbiotinylated in the SPR of Example 5.6); assay: SPR (Biacore), mAb2 captured by anti-human Fab, antigen in solution, 1:1 Langmuir
T2 construct: Made in-house in HEK293-6E; also called human CD137-mFc-Avi; dimeric human CD137; not shown: mouse IgG2a Fc domain (mIgG2a Fc)
T2 sequence (Q07011 24-186): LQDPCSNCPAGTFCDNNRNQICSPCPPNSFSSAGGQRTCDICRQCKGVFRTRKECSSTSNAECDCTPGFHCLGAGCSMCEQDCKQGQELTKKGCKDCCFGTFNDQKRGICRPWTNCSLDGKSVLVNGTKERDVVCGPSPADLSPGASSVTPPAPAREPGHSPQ
Protocol: (§1) An anti-human Fab capture antibody was immobilised on all four flow cells of a CM5 series S chip (GE Healthcare #BR-1005-30) to an average surface density of 6000 RU following the manufacturer's recommendations (GE Healthcare, human Fab capture Kit, #28958325). IEach mAb² was captured to approximately 150 RU by injecting a 3 μg/ml solution of mAb² diluted in HBS-EP+ buffer (GE Healthcare #BR1006-69) for 60 seconds at 30 μl/min. Then different concentrations of human, cyno or mouse CD137 antigen (unbiotinylated human, cyno or mouse CD137-mFc-Avi or human CD137-Avi-His) in HBS-EP+ buffer were flowed over the chip for 3 min at 60 μl/min and then allowed to dissociate for 10 minutes. After each antigen concentration the chip was regenerated by infecting 10 mM glycine pH 2.1 at a flow rate of 30 μl/min for 30 seconds. Buffer HBS-EP+ was injected before the highest concentration of antigen and after the lowest concentration of antigen for reference subtraction, and one of the concentrations at random was repeated twice. The binding kinetics were fit with a 1:1 Langmuir model to generate equilibrium binding constants (KD) for each sample. Data analysis was performed with BiaEvaluation software version 3.2.

[3] = biological target: T3, cCD137-mFc-Avi (cynomolgus; mouse, one biotin on the Avi sequence of each monomer (BirA); unbiotinylated in the SPR of Example 5.6); assay: as above
T3 construct: also called cyno CD137-mFc-Avi; dimeric cynomolgus CD137; not shown: mouse IgG2a Fc domain (mIgG2a Fc)
T3 chain: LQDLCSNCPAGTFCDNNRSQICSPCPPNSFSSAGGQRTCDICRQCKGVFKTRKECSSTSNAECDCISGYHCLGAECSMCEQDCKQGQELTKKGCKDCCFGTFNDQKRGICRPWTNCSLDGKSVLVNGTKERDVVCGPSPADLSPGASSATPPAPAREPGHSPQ
Protocol: as §1

[4] = biological target: T4, mouse CD137, full length, on cells (mouse, UniProt P20334 24-256); assay: cell-based or functional assay
T4 sequence (P20334 24-256): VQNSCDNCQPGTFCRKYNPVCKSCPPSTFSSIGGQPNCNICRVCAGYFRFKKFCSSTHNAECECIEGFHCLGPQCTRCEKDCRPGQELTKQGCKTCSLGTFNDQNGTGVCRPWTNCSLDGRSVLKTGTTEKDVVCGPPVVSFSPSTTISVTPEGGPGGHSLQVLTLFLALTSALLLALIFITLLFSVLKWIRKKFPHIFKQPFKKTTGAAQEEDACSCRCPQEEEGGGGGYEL

[5] = biological target: T1, human CD137, full length, on cells; assay: cell-based or functional assay; remark: listed apart in the source
[6] = biological target: T4, mouse CD137, full length, on cells; assay: cell-based or functional assay; remark: listed apart in the source
[7] = biological target: T2, hCD137-mFc-Avi; assay: SPR (Biacore T200), mAb2 captured by anti-human Fab, hCD137-mFc in solution, 1:1 Langmuir
Protocol: For the hCD137-mFc-Avi antigen the following method was used: an anti-human Fab molecule was immobilised on a CM5 chip to a surface density of between 9,000 and 11,000 response units (RU). The antibodies were diluted to 4 μg/ml in HBS-EP buffer and captured by the anti-Fab molecule with a flow rate of […].
For mCD137-mFc-Avi binding kinetic determination, a different approach was used. […] The analysis of the data was done using the Biacore T200 evaluation software. Curves were subtracted against a blank flow cell and fitted using a 1:1 Langmuir binding model with mass transfer, setting RI to zero as constant and Rₘₐₓ to local.

[8] = biological target: T1, human CD137, full length, on cells; assay: cell-based or functional assay; remark: listed apart in the source
[9] = biological target: human CD40 (human, UniProt P25942 21-193); assay: SPR (Biacore T200), receptor amine-coupled to CM5 chip
Sequence of human CD40 (P25942 21-193 limits assumed): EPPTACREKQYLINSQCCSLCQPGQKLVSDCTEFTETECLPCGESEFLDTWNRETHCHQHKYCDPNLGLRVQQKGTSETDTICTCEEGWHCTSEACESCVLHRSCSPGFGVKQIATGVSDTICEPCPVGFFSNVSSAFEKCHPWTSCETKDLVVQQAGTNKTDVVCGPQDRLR
Protocol: (§2) The specificity of the anti-human CD137 Fcabs for human CD137 compared to other related TNFSFR family members was tested. 8 of the Fcabs were tested in mock mAb² (HeID1.3) format and measured by SPR in a Biacore T200 (GE Healthcare) by testing for binding to other human TNFRSF receptors: CD40, OX40 and GITR. Amine coupling (amine coupling kit, GE Healthcare, BR-1000-50) was used to coat human CD40, GITR and OX40 to approximately 1000 RU in Biacore CM5 chips (GE Healthcare, cat no 29149603). […] The chip was regenerated by injection of 10 mM glycine pH 2.5 for 12 s at 30 μl/min. Antibodies specific to the different TNFRSF members were used as positive controls to verify Biacore chip coating. Data was double reference subtracted and analysed using BIAevaluation 3.2 software.

[10] = biological target: T5, human OX40 (human, UniProt P43489 29-216, limits assumed); assay: as above
T5 sequence (looked up): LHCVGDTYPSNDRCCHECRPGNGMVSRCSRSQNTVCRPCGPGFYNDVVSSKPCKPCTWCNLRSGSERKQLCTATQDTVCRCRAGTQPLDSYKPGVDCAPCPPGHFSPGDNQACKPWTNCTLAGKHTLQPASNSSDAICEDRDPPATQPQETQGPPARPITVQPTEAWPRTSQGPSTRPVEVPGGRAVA
Protocol: as §2

[11] = biological target: T6, human GITR (human, UniProt Q9Y5U5 26-161, limits assumed); assay: as above
T6 sequence (looked up): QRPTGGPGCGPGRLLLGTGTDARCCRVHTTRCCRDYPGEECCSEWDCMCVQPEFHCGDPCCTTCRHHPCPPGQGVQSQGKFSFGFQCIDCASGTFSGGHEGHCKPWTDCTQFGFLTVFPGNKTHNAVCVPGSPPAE
Protocol: as §2

[12] = biological target: T7, hCD137-Avi-His (human, UniProt Q07011 24-186, single biotin on the Avi sequence (BirA); unbiotinylated in the SPR of Example 5.6); assay: SPR (Biacore), mAb2 captured by anti-human Fab, antigen in solution, 1:1 Langmuir
T7 construct: also called human CD137-Avi-His; monomeric human CD137
T7 sequence (Q07011 24-186): as the sequence (Q07011 24-186) above
Protocol: as §1

T1 sequence (Q07011 24-255): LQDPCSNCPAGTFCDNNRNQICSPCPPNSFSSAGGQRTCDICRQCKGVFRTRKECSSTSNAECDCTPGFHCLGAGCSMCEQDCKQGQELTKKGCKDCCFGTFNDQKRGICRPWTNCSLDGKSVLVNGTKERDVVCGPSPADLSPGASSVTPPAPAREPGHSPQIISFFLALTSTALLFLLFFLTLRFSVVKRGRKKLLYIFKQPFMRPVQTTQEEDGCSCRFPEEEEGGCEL

B1: FS22-053/HelD1.3 (bispecific antibody, human IgG1, kappa)
heavy: QVQLQESGPGLVRPSQTLSLTCTVSGSTFSGYGVNWVRQPPGRGLEWIGMIWGDGNTDYNSALKSRVTMLVDTSKNQFSLRLSSVTAADTAVYYCARERDYRLDYWGQGSLVTVSSASTKGPSVFPLAPSSKSTSGGTAALGCLVKDYFPEPVTVSWNSGALTSGVHTFPAVLQSSGLYSLSSVVTVPSSSLGTQTYICNVNHKPSNTKVDKKVEPKSCDKTHTCPPCPAPELLGGPSVFLFPPKPKDTLMISRTPEVTCVVVDVSHEDPEVKFNWYVDGVEVHNAKTKPREEQYNSTYRVVSVLTVLHQDWLNGKEYKCKVSNKALPAPIEKTISKAKGQPREPQVYTLPPSRDELNPPYLFSNQVSLTCLVKGFYPSDIAVEWESNGQPENNYKTTPPVLDSDGSFFLYSKLTVYYNRWQDGNVFSCSVMHEALHNHYTQKSLSLSPG
light: DIQMTQSPASLSASVGETVTITCRASGNIHNYLAWYQQKQGKSPQLLVYNAKTLADGVPSRFSGSGSGTQYSLKINSLQPEDFGSYYCQHFWSTPRTFGGGTKLEIKRTVAAPSVFIFPPSDEQLKSGTASVVCLLNNFYPREAKVQWKVDNALQSGNSQESVTEQDSKDSTYSLSSTLTLSKADYEKHKVYACEVTHQGLSSPVTKSFNRGEC
notes: Mock mAb^2, IgG1 without LALA; also called FS22-053/HeID1.3
In the case of B1, the “NF-kB luciferase reporter (HEK.FRT.luc.hCD137), signal with against without Protein L” value [1] is reported as at least 10 fold, the Kd [2] is reported as 38 nM and the Kd [3] is reported as 34 nM.

B2: FS22-053-017/HelD1.3 (bispecific antibody, human IgG1, kappa)
heavy: B1 heavy with Y418H, N419W, Q422L, D423E
light: B1 light
notes: Mock mAb^2, IgG1 without LALA; also called FS22-053-17; FS22-053-017/HeID1.3
B2 was tested, and the “IL-2 release, mouse CD137 DO11.10 T cell activation assay: EC50 against that of FS22-053-014” value [4] was about 8 fold, the “IL-2 release, human CD137 DO11.10 T cell activation assay, Protein L: +XL EC50” value [5] was 0.82 nM and the “IL-2 release, mouse CD137 DO11.10 T cell activation assay, Protein L: +XL EC50” value [6] was 16.7 nM. The “IL-2 release, mouse CD137 DO11.10 T cell activation assay, Protein L: +XL Emax” value [6] was 41000 pg/mL, the Kd [7] was 4.59 nM and the koff [7] was 0.000406 s⁻¹. The kon [7] was 88500 M⁻¹ s⁻¹.

B3: FS22-172-004/HelD1.3 (bispecific antibody, human IgG1, kappa)
heavy: B1 heavy with P359Y, P360I, L362P, F363P, S364Y, Y417G, Y418A, N419D, Q422L, D423E
light: B1 light
notes: Mock mAb^2, IgG1 without LALA
In the case of B3, the “NF-kB signalling, HEK.FRT.luc.hCD137, +XL (EC50 nM)” value [8] is reported as 124 nM, the binding result [9] is reported as “no binding (tested: starting at 1 µM)” and the binding result [10] is reported as “no binding (tested: starting at 1 µM)”. The binding result [11] was “no binding (tested: starting at 1 µM)”, the Kd [2] was 4.3 nM and the “Human monomeric CD137 KD fold difference relative to human dimeric KD” value [12] was over 200 fold. For the same binder, the Kd [3] was 3.5 nM.

B4: FS22-172/HelD1.3 (bispecific antibody, human IgG1, kappa)
heavy: QVQLQESGPGLVRPSQTLSLTCTVSGSTFSGYGVNWVRQPPGRGLEWIGMIWGDGNTDYNSALKSRVTMLVDTSKNQFSLRLSSVTAADTAVYYCARERDYRLDYWGQGSLVTVSSASTKGPSVFPLAPSSKSTSGGTAALGCLVKDYFPEPVTVSWNSGALTSGVHTFPAVLQSSGLYSLSSVVTVPSSSLGTQTYICNVNHKPSNTKVDKKVEPKSCDKTHTCPPCPAPELLGGPSVFLFPPKPKDTLMISRTPEVTCVVVDVSHEDPEVKFNWYVDGVEVHNAKTKPREEQYNSTYRVVSVLTVLHQDWLNGKEYKCKVSNKALPAPIEKTISKAKGQPREPQVYTLPPSRDELRKYYPPYNQVSLTCLVKGFYPSDIAVEWESNGQPENNYKTTPPVLDSDGSFFLYSKLTVGADRWLEGNVFSCSVMHEALHNHYTQKSLSLSPG
light: B1 light
notes: Mock mAb^2, IgG1 without LALA
B4 was tested, and the “NF-kB luciferase reporter (HEK.FRT.luc.hCD137), signal with against without Protein L” value [1] was at least 10 fold, the Kd [2] was 52 nM and the Kd [3] was 203 nM.

Source: patent US20250084176A1 (F STAR BETA, published 2025)
